Data: US20060046277

Assays:
[1] = test system: GST-Z1-AMPK×3 [GST: P08515]
[2] = test system: AMPK kinase substrate (GST fusion, Table 2) [GST: P08515]
[3] = test system: GST-Z2-AMPK×3 [GST: P08515]
[4] = test system: EGFR kinase substrate (GST fusion, Table 2) [GST: P08515]
GST-Z2-Abl×1 = test system: T1, GST-Z2-Abl×1
T1 sequence: AIYAAPF

[5] = test system: Abl kinase substrate (GST fusion, Table 2) [GST: P08515]
GST-Abl×1 = test system: T2, GST-Abl×1
T2 sequence: AIYAAPF

[6] = test system: CHK kinase substrate (GST fusion, Table 2) [GST: P08515]
[7] = test system: dsDNAPK kinase substrate (GST fusion, Table 2) [GST: P08515]
[8] = test system: IKK kinase substrate (GST fusion, Table 2) [GST: P08515]
[9] = test system: Src kinase substrate (GST fusion, Table 2) [GST: P08515]
[10] = test system: CK1 kinase substrate (GST fusion, Table 2) [GST: P08515]
[11] = test system: CK2 kinase substrate (GST fusion, Table 2) [GST: P08515]
[12] = test system: ERK kinase substrate (GST fusion, Table 2) [GST: P08515]
[13] = test system: JNK3 kinase substrate (GST fusion, Table 2) [GST: P08515]
[14] = test system: PKA kinase substrate (GST fusion, Table 2) [GST: P08515]
[15] = test system: GST-Z2-Src×2 [GST: P08515]
[16] = test system: GST-dsDNA×3 [GST: P08515]
GST-dsDNA×1 = test system: T3, GST-dsDNA×1
T3 sequence: GGGEETQTQDQPMEEEEV

[17] = test system: GST-dsDNA×2 [GST: P08515]
[18] = test system: GST-dsDNA×4 [GST: P08515]
[19] = test system: GST-Z1-dsDNA×4 [GST: P08515]

Sequence of JNK3 (P53779 whole entry): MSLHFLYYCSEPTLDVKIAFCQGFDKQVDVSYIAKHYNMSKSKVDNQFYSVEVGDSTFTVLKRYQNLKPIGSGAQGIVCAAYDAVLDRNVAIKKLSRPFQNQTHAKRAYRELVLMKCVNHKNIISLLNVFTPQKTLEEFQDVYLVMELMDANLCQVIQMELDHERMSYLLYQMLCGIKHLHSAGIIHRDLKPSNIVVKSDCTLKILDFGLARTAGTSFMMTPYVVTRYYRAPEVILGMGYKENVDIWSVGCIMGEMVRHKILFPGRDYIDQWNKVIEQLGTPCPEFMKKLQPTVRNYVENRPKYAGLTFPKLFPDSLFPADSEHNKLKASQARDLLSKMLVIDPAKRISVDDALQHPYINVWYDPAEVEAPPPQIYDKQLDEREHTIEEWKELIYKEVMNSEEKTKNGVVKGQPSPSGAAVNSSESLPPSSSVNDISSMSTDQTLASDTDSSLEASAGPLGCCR

**Q.** Which results are given for AMPK?
**A.** phosphorylation of the substrate on beads (32P-ATP, SDS-PAGE, autoradiogram; FIG. 6) [1]: All of the protein kinase substrates reacted with their corresponding kinases; Reactivity for each of the Kinase Substrates (32P phosphorylation, autoradiogram) [2]: +++++; phosphorylation of the substrate on beads (32P-ATP, SDS-PAGE, autoradiogram; FIG. 6) [3]: All of the protein kinase substrates reacted with their corresponding kinases

**Q.** What does the source list for Abl?
**A.** Reactivity for each of the Kinase Substrates (32P phosphorylation, autoradiogram) [4]: +++++; phosphorylation of the substrate on beads (32P-ATP, SDS-PAGE, autoradiogram; FIG. 6) (GST-Z2-Abl×1): All of the protein kinase substrates reacted with their corresponding kinases; Reactivity for each of the Kinase Substrates (32P phosphorylation, autoradiogram) [5]: +++++; phosphorylation of the substrate on beads (32P-ATP, SDS-PAGE, autoradiogram; FIG. 6) (GST-Abl×1): All of the protein kinase substrates reacted with their corresponding kinases; Reactivity for each of the Kinase Substrates (32P phosphorylation, autoradiogram) [2]: +++

**Q.** What does the source list for CHK?
**A.** Reactivity for each of the Kinase Substrates (32P phosphorylation, autoradiogram) [6]: +++++; phosphorylation of the substrate on beads (32P-ATP, SDS-PAGE, autoradiogram; FIG. 6) (GST-CHK×5 [GST: P08515]): All of the protein kinase substrates reacted with their corresponding kinases

**Q.** Which “Reactivity for each of the Kinase Substrates (32P phosphorylation, autoradiogram)” value (from here on “Reactivity for each”) [7] does the source give for CK1 here?
**A.** +++++

**Q.** And the “Reactivity for each” value [8]?
**A.** +

**Q.** What about the “Reactivity for each” value [9] of the same substance?
**A.** +++++

**Q.** And the “phosphorylation of the substrate on beads (32P-ATP, SDS-PAGE, autoradiogram; FIG. 6)” value (“phosphorylation of the substrate” below) (GST-CK1×4 [GST: P08515])?
**A.** All of the protein kinase substrates reacted with their corresponding kinases

**Q.** And the “Reactivity for each” value [10]?
**A.** +++++

**Q.** For CK2, which “Reactivity for each” value [11] is on record?
**A.** +++++

**Q.** What about the “Reactivity for each” value [8] of the same substance?
**A.** +

**Q.** What about the “phosphorylation of the substrate” value (GST-CK2×4 [GST: P08515]) of the same substance?
**A.** All of the protein kinase substrates reacted with their corresponding kinases

**Q.** What does the source list for EGFR?
**A.** Reactivity for each of the Kinase Substrates (32P phosphorylation, autoradiogram) [4]: +++++; phosphorylation in the 4-member substrate ladder on beads (32P-ATP, SDS-PAGE, autoradiogram; FIG. 12) (GST-EGFR×3 [GST: P08515]): All of the protein kinase substrates reacted with their corresponding kinases, and cross-reactivity with other substrate was minimal; phosphorylation of the substrate on beads (32P-ATP, SDS-PAGE, autoradiogram; FIG. 6) (GST-EGFR×3 [GST: P08515]): All of the protein kinase substrates reacted with their corresponding kinases; Reactivity for each of the Kinase Substrates (32P phosphorylation, autoradiogram) [5]: +++++

**Q.** With IKK as the substance, how does the “Reactivity for each” value [12] read?
**A.** +

**Q.** And the “Reactivity for each” value [8]?
**A.** +++++

**Q.** What about the “Reactivity for each” value [9] of the same substance?
**A.** +

**Q.** And the “phosphorylation in the 4-member substrate ladder on beads (32P-ATP, SDS-PAGE, autoradiogram; FIG. 12)” value (GST-IKK×7 [GST: P08515])?
**A.** All of the protein kinase substrates reacted with their corresponding kinases, and cross-reactivity with other substrate was minimal

**Q.** And the “phosphorylation of the substrate” value (GST-IKK×7 [GST: P08515])?
**A.** All of the protein kinase substrates reacted with their corresponding kinases

**Q.** What about the “phosphorylation of the substrate” value (GST-IKK×4 [GST: P08515]) of the same substance?
**A.** All of the protein kinase substrates reacted with their corresponding kinases

**Q.** And the “Reactivity for each” value [13]?
**A.** +

**Q.** What about the “Reactivity for each” value [10] of the same substance?
**A.** +++++

**Q.** JNK3 was tested. Which “phosphorylation of the substrate” value (GST-JNK3×3 [GST: P08515]) did it give?
**A.** All of the protein kinase substrates reacted with their corresponding kinases

**Q.** What about the “Reactivity for each” value [12] of the same substance?
**A.** +

**Q.** And the “phosphorylation in the 4-member substrate ladder on beads (32P-ATP, SDS-PAGE, autoradiogram; FIG. 12)” value (GST-JNK3×8 [GST: P08515])?
**A.** All of the protein kinase substrates reacted with their corresponding kinases, and cross-reactivity with other substrate was minimal

**Q.** And the “phosphorylation of the substrate” value (GST-JNK3×8 [GST: P08515])?
**A.** All of the protein kinase substrates reacted with their corresponding kinases

**Q.** What about the “Reactivity for each” value [13] of the same substance?
**A.** +++++

**Q.** How did the “Reactivity for each” value [7] turn out when PKA was run?
**A.** +++++

**Q.** What about the “Reactivity for each” value [14] of the same substance?
**A.** +++++

**Q.** What about the “Reactivity for each” value [9] of the same substance?
**A.** +++++

**Q.** What about the “phosphorylation of the substrate” value (GST-Z1-PKA [GST: P08515]) of the same substance?
**A.** All of the protein kinase substrates reacted with their corresponding kinases

**Q.** Which “phosphorylation in the 4-member substrate ladder on beads (32P-ATP, SDS-PAGE, autoradiogram; FIG. 12)” value [15] does the source give for Src here?
**A.** All of the protein kinase substrates reacted with their corresponding kinases, and cross-reactivity with other substrate was minimal

**Q.** And the “phosphorylation of the substrate” value [15]?
**A.** All of the protein kinase substrates reacted with their corresponding kinases

**Q.** What about the “Reactivity for each” value [5] of the same substance?
**A.** +++++

**Q.** And the “Reactivity for each” value [9]?
**A.** +++++

**Q.** What about the “Reactivity for each” value [2] of the same substance?
**A.** +++

**Q.** And the “Reactivity for each” value [13]?
**A.** +

**Q.** And the “Reactivity for each” value [10]?
**A.** +++++

**Q.** With dsDNA (DNAPK) as the substance, how does the “phosphorylation by dsDNA PK (32P ATP, SDS-PAGE, autoradiogram; FIG. 7)” value (“phosphorylation by dsDNA PK” below) [16] read?
**A.** autoradiogram of phosphorylated GST-dsDNA kinase peptide substrate fusion proteins with different number of the peptide repeats

**Q.** What about the “Reactivity for each” value [7] of the same substance?
**A.** +++++

**Q.** What about the “phosphorylation by dsDNA PK” value (GST-dsDNA×1) of the same substance?
**A.** autoradiogram of phosphorylated GST-dsDNA kinase peptide substrate fusion proteins with different number of the peptide repeats

**Q.** What about the “Reactivity for each” value [14] of the same substance?
**A.** +++++

**Q.** And the “phosphorylation by dsDNA PK” value [17]?
**A.** autoradiogram of phosphorylated GST-dsDNA kinase peptide substrate fusion proteins with different number of the peptide repeats

**Q.** And the “phosphorylation by dsDNA PK” value [18]?
**A.** autoradiogram of phosphorylated GST-dsDNA kinase peptide substrate fusion proteins with different number of the peptide repeats

**Q.** And the “phosphorylation of the substrate” value [19]?
**A.** All of the protein kinase substrates reacted with their corresponding kinases
